Results taken from article doi:10.1101/2024.01.20.576357.

Molecular target: SpyCatcher-VLP (virus-like particle of SpyCatcher-HBc) (Hepatitis B virus)
Assay: cryo-EM structure

## SpyCatcher-VLP (virus-like particle of SpyCatcher-HBc)
  stoichiometry N (monomers per VLP): 180
